Where a chain is given by its changes, count along the chain named.
T1: A33 antigen (full-length human A33) (human, UniProt Q99795 22-319)
T1 construct: Class I cell membrane protein of the Ig superfamily; also called GPA33; human A33 antigen
T1 sequence: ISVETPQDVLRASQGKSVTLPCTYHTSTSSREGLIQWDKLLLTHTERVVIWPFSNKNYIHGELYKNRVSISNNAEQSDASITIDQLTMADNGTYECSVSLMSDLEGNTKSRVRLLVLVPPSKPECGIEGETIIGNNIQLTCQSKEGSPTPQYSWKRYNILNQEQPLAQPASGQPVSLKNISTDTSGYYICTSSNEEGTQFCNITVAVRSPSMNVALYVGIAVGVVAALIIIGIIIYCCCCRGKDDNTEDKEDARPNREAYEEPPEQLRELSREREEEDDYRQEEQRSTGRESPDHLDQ

B1: chimeric anti-A33 antibody (antibody, V domains shown)
VH: EVKLVESGGGLVKPGGSLKLSCAASGFAFSTYDMSWVRQTPEKRLEWVATISSGGSYTYYLDSVKGRFTISRDSARNTLYLQMSSLRSEDTALYYCAPTTVVPFAYWGQGTLVTVSS
VL: DIVMTQSQKFMSTSVGDRVSITCKASQNVRTVVAWYQQKPGQSPKTLIYLASNRHTGVPDRFTGSGSGTDFTLTISNVQSEDLADYFCLQHWSYPLTFGSGTKLEVK
notes: Mouse variable regions with human IgG1 heavy chain and light chain constant regions (N5KG1-Val Lark vector); also called cA33; chimeric anti-A33 recombinant antibody
B2: recN26 (antibody, V domains shown)
VH: QVQLVESGGGVVQPGRSLRLSCAASGFTFSHYGMHWVRQAPGKGLEWVALIWYDGSNKYYADSVKGRFTISRDNSKNTLYLQMNSLRAEDTAVYYCARDPLAAGTSYFDYWGQGTLVTVSS
VL: EIVLTQSPDFQSVTPKEKVTITCRASQSIGSSLHWYQQKPDQSPKLLIKYASQSFSGVPSRFSGSGSGTDFTLTINSLEAEDAAAYYCHQSSSLPFTFGPGTKVDIK
notes: also called recN26 antibody; N26 recombinant antibody
B3: rec263 (antibody, V domains shown)
VH: EVQLLESGGGLVQPGGSLRLSCAASGFTFSSYAMSWIRQAPGKGLEWVSAISASGGSTYYADSVKGRFTISRDNSKNTLYLQMNSLRAEDTAVYYCAKDRIVGATNYYYGMDVWGQGTTVTVSS
VL: DIQMTQSPPSVSASVGDRVTITCRASQGISSWLAWYQHKPGKAPKLLIYGASSLQSGVPSRFSGSGSGTDFTLTISSLQPEDFATYYCQQANSFPITFGQGTRLEIK
notes: also called rec263 antibody; rec263A1
B4: recM10 (antibody, V domains shown)
VH: QLQVQESGPGLVKPSETLSLICTVSGGSIRTSGYYWGWFRQPPGKGLEWIGTSHNSGSTYYNPSLKSRVTISVDTSKNQFSLKLNSVTAADTAVYYCARQGYDFKVNIDVWGQGTTVTVSS
VL: EIVLTQSPATLSLSPGERATLSCRASQSVSSYLAWYQQKPGQAPRLLIYDASNRATGIPARFSGSGSGTDFTLTISSLEPEDFAVYYCQQRSNWPLTFGGGTKVEIK
notes: also called recM10 antibody; M10 recombinant antibody
B5: recM165 (antibody, V domains shown)
VH: QVQLVESGGGVVQPGRSLRLSCAASGFTFSYYGMHWVRQAPGKGLEWVAVIWYDGSNKYYADSVKGRFTISRDNSKKTLYLQMNSLRAEDTAVYYCARDGHSSGWGDFQHWGQGTLVTVSS
VL: B4 VL with Y32S, V85I, L96P, G100Q
notes: also called recM165 antibody; M165 recombinant antibody
B6: recQ54 (antibody, V domains shown)
VH: EVQLLESGGGLVQPGGSLRLSCAASGFTFSSYAMSWVRQAPGKGLEWVSDISGSGGYTYYADSVKGRFTISRDNSKNTLYLQMNSLRAEDTAVYYCAKTGDGSGSYSPDSWGQGTLVTVSS
VL: DIQMTQSPSSLSASVGDRVTITCRASQGISRWLAWYQQKPEKAPKSLIYAASSLQSGVPSRFSGSGSGTDFTLTISSLQPEDFATYYCQQYNSYPYTFGQGTKLEIK
notes: also called recQ54 antibody; Q54 recombinant antibody

Biological target: T1, A33 antigen (full-length human A33)
Assay: FCM on NCI-H508 cells; grade = ng/ml to reach half MFI 125 (+++ 10<=x<100, ++ 100<=x<1000, + 1000<=x<10000)
Text: (§1) The reactivity of each type of purified monoclonal antibody obtained in Example 8 to A33-antigen-expressing human colorectal cancer cell line COLO205 cells, LoVo cells (ATCC No. CCL-229), LS174T cells (ATCC No. CL-188), and NCI-H508 cells (ATCC No. CCL-253) was examined by FCM. Human colorectal cancer cell line HT-29 cells (ATCC No. HTB-38) expressing no A33 antigen were also examined as negative control cells. Each cell line was suspended at a concentration of 2×10⁶/ml in a PBS Staining Buffer (SB) containing 0.1% NaN₃ and 2% FCS. The cell suspension (50 μl/well) was dispensed in a 96-well round bottom plate (produced by Becton, Dickinson and Company). 50 μl of each type of purified monoclonal antibody (adjusted using SB at a concentration of 2000, 400, 80, or 16 ng/ml) was added, and then incubation was performed on ice for 30 minutes. A negative control was prepared depending on each subclass. Specifically, a human IgG1 antibody (produced by Sigma) was adjusted using SB at a concentration of 2000, 400, 80, or 16 ng/ml. 50 μl of the solution was added, followed by 30 minutes of incubation on ice. The resultant was washed twice with SB and then 50 μl of an FITC fluorescence-labeled goat anti-human IgG F(ab′)₂ antibody (produced by Southern Biotech), followed by 30 minutes of incubation on ice. The resultant was washed once with SB and then the resultant was suspended in 300 μl of a FACS buffer. The mean fluorescence intensity of each cell line was measured by FACS (FACScan produced by Becton, Dickinson and Company).
(§2) For COLO205 cells, the half value of the mean fluorescence intensity was determined to be 90. For LoVo cells, the half value of the mean fluorescence intensity was determined to be 25. […] When an antibody concentration required to reach such value was 10<=x<100 ng/ml, the reactivity was represented by +++, when the same was 100<=x<1000 ng/ml, the reactivity was represented by ++, and when the same was 1000<=x<10000 ng/ml, the reactivity was represented by +. When no binding was observed, the reactivity was represented by −.

Binder	antibody concentration required to reach half value of mean fluorescence intensity [ng/mL]
B1	100 to 1000

Biological target: T1, A33 antigen (full-length human A33)
Assay: FCM on LS174T cells; grade = ng/ml to reach half MFI 125 (+++ 10<=x<100, ++ 100<=x<1000, + 1000<=x<10000)
Text: as §1, §2

Binder	antibody concentration required to reach half value of mean fluorescence intensity [ng/mL]
B1	100 to 1000

Biological target: T1, A33 antigen (full-length human A33)
Assay: FCM on NCI-H508 cells; grade = ng/ml to reach half MFI 175 (+++ 10<=x<100, ++ 100<=x<1000, + 1000<=x<10000)

Binder	antibody concentration required to reach half value of the mean fluorescence intensity [ng/mL]
B2	10 to 100
B3	100 to 1000
B4	10 to 100
B5	100 to 1000
B6	10 to 100
B1	10 to 100

Biological target: T1, A33 antigen (full-length human A33)
Assay: FCM competition on COLO205 cells as in Example 10; competitor mouse anti-A33 antibody
Protocol: (§3) Whether or not each type of purified monoclonal antibody obtained in Example 8 recognizes an epitope similar to that of the mouse anti-A33 antibody was examined by a competition test using FCM. The COLO205 cell line was suspended at a concentration of 2×10⁶/ml in a PBS Staining Buffer (SB) containing 0.1% NaN₃ and 2% FCS. The cell suspension (50 μl/well) was dispensed in a 96-well round bottom plate (produced by Becton, Dickinson and Company). The purified mouse anti-A33 antibody prepared in Example 1 was not added or added at a concentration of 100 μg/ml to the wells containing each type of purified monoclonal antibody (1 μg/ml and 50 μl), followed by 30 minutes of incubation on ice. A mouse negative control (containing no purified anti-A33 antibody added thereto) was prepared as follows. A human IgG1 antibody (produced by Sigma) was adjusted at a concentration of 1 μg/ml with SB and then 50 μl of the solution was added, followed by 30 minutes of incubation on ice. The resultant was washed twice with SB and then 50 μl of FITC fluorescence-labeled goat anti-human IgG F(ab′)₂ antibody (produced by IBL) was added, followed by 30 minutes of incubation on ice. The resultant was washed once with SB and then the resultant was suspended in 300 μl of a FACS buffer. The mean fluorescence intensity of each cell line was measured by FACS (FACScan produced by Becton, Dickinson and Company). The inhibition (%) between each type of purified monoclonal antibody and the mouse A33 antibody was calculated by the following formula: […]

Binder	Inhibition (%)
B2	95.3
B3	15.3
B4	0.2
B5	93.4
B6	44.6
B1	94.6

Biological target: T1, A33 antigen (full-length human A33)
Assay: FCM on LoVo cells; grade = ng/ml to reach half MFI 25 (+++ 10<=x<100, ++ 100<=x<1000, + 1000<=x<10000)
Text: as §1, §2

Binder	antibody concentration required to reach half value of mean fluorescence intensity [ng/mL]
B1	10 to 100

Biological target: T1, A33 antigen (full-length human A33)
Assay: FCM on LS174T cells; grade = ng/ml to reach half MFI 100 (+++ 10<=x<100, ++ 100<=x<1000, + 1000<=x<10000)

Binder	antibody concentration required to reach half value of the mean fluorescence intensity [ng/mL]
B2	10 to 100
B3	100 to 1000
B4	10 to 100
B5	100 to 1000
B6	10 to 100
B1	10 to 100

Biological target: T1, A33 antigen (full-length human A33)
Assay: FCM on COLO205 cells; grade = ng/ml to reach half MFI 45 (+++ 10<=x<100, ++ 100<=x<1000, + 1000<=x<10000)

Binder	antibody concentration required to reach half value of the mean fluorescence intensity [ng/mL]
B2	100 to 1000
B3	100 to 1000
B4	10 to 100
B5	100 to 1000
B6	10 to 100
B1	10 to 100

Biological target: T1, A33 antigen (full-length human A33)
Assay: FCM on COLO205 cells; grade = ng/ml to reach half MFI 90 (+++ 10<=x<100, ++ 100<=x<1000, + 1000<=x<10000)
Text: as §1, §2

Binder	antibody concentration required to reach half value of mean fluorescence intensity [ng/mL]
B1	10 to 100

Biological target: T1, A33 antigen (full-length human A33)
Assay: FCM competition on COLO205 cells; antibody 1 µg/ml, competitor mouse anti-A33 antibody 100 µg/ml
Protocol: as §3

Binder	Inhibition (%)
B1	94.2
